Legend:
[1] = Biotransformation of tetradecanoic acid using CFE of E. coli, Tris-HCl buffer; assay type: biochemical; conditions: 5 mmol/L substrate, CFE of E. coli, Tris-HCl, 24 h
Method: (§1) Expression of genes in E. coli was performed by using ZYP-5052 auto-induction medium (Table 1) with in the case of the CYP 1 mM 5-aminolevulinic acid and 0.05 mM FeCl3 added. The CYP505E3 culture was cultivated using baffled flasks and incubated at 20° C. and 180 rpm for 24 h, while the GDH, and HLADH expressing cultures were all cultivated at 25° C. and 200 rpm for 24 h. Cultures were harvested through centrifugation (6 000×g, 10 min) and 1 g (wet weight) resuspended in 2 ml, 5 ml or 10 ml Tris-HCl, Phosphate or MOPS buffer, as indicated, (pH 8, 200 mM) containing 100 mM of glucose and glycerol. CFEs were obtained by a single passage of the suspended cells through a One Shot Cell Disrupter (Constant Systems) at 207 MPa. The soluble fraction was separated from unbroken cells by centrifugation (20 000×g, 20 min).
(§2) The biotransformation reaction mixture (BRM) consisted of CYP and GDH CFE suspensions prepared from cells in Tris-HCl buffers (1 g wet weight in 2 ml buffer) mixed in a 1:1 ratio with 0.1 mM NADPH added. Dodecanoic acid, tetradecanoic acid, hexadecanoic acid, 1-tetradecanol and 1-hexadecanol (20 μl of a 255 mM stock solution in DMSO) were added to 40 ml amber glass vials containing 1 ml BRM to give final substrate concentrations of 5 mmol·LBRM^−1. These vials were placed on an orbital shaker at 20° C., 200 rpm, oscillation amplitude 26 mm. Vials were removed after 24 h for extraction. Biotransformations were stopped by adding 170 ul of 0.5M HCl, extracted with 2×500 μl EtOAc and subjected to GC-MS analysis. A sample of δ-dodecalactone in ethyl acetate (0.1 mM) was also methylated with TMSH and subjected to GC-MS analysis.

[2] = assay type: biochemical
Method: To convert 1,5-dodecanediol to δ-dodecalactone 170 μL of an ethyl acetate extract containing 150 mM dodecanol and 5.5 mM 1,5-dodecanediol was placed in a 40 mL vial and the ethyl acetate evaporated by incubating the vial at 100° C. for 5 min. After evaporation of the ethyl acetate the dodecanol/dodecanediol mixture was resuspended in 1 mL of an HLADH expressing culture of E. coli permeabilized with Triton X100 (1% v/v was added and the cell suspension incubated at 37° C. for 10 min). This reaction mixture containing 1 mM of 1,5-dodecanediol and 25 mM of dodecanol was incubated at 30° C. and 180 rpm for 24 h. It was then extracted with ethyl acetate (2×0.5 mL) containing 2 mM undecanol as internal standard and analysed on a VF5 column using a GC with FID detector for quantification and a GC-MS with a Chiraldex G-TA column (30 m×0.25 mm ID) to determine enantioselectivity. The ethyl acetate extract contained 0.2 mM 1,5-dodecanediol and 0.65 mM δ-dodecalactone (R:S ratio 84:16, ee 67%) while the δ-dodecalactone produced from dodecanoic acid in previous experiments using CYP505E3 was an almost racemic mixture (R:S ratio 55:45, ee 10%) (FIG. 12).

[3] = Biotransformation of hexadecanoic acid using CFE of E. coli, Tris-HCl buffer; assay type: biochemical
Method: as §1, §2

[4] = Biotransformation of C12 fatty acid using CFE of E. coli expressing CYP505E3 in different buffers; assay type: biochemical
Method: as §1
The biotransformation reaction mixture (BRM) consisted of CYP and GDH CFE suspensions prepared from cells in Tris-HCl, phosphate and MOPS buffers (1 g wet weight in 5 ml buffer) mixed in a 1:1 ratio with 0.1 mM NADPH added. The final CYP concentrations were 1.1, 1.3 and 1.5 μM in respectively the Tris-HCl, phosphate and MOPS buffers. Dodecanoic acid (20 μl of 255 or 510 mM fatty acid stock solution in DMSO) was added to 40 ml amber glass vials containing 1 ml BRM to give final substrate concentrations of 5 and 10 mmol·LBRM^−1. […]

[5] = Whole cell biotransformation of dodecane by CYP505s expressed in P. pastoris; assay type: cell-based; conditions: whole cells of P. pastoris
Method: Precultures of P. pastoris transformants were prepared in buffered complex glycerol media (BMGY). BMGY contained: 10 g/l yeast extract, 20 g/l peptone, 3.4 g/l yeast nitrogen base, 10 g/l ammonium sulfate, 100 mM potassium phosphate (pH 6), 0.4 mg/l biotin and 1% (v/v) glycerol. Erlenmeyer flasks (500 ml) containing 50 ml BMGY media were inoculated with single colonies of 24 h old YPD-agar cultures of P. pastoris KM71 mut^s3/CYP505E3 and incubated at 30° C. and 225 rpm for 24 h. The cultures were harvested using pre-weighed centrifuge tubes at 3000 g for 5 min and stored on ice until further use.
The main cultures for expression were prepared in buffered complex methanol media (BMMY) containing 10 g/l yeast extract, 20 g/l peptone, 3.4 g/l yeast nitrogen base, 10 g/l ammonium sulfate, 100 mM potassium phosphate (pH 6), 0.4 mg/l biotin and 0.5 or 1% (v/v) methanol. Harvested cells from precultures were resuspended in BMMY media to final concentration of 1 g WC per 40 ml (appx. 25 g/l). The resuspended cultures (100 ml) were transferred to 500 ml Erlenmeyer flasks and incubated at 25° C. and 225 rpm for 24 h. The cultures were then harvested at 3000 g for 5 min using pre-weighed centrifuge tubes.
Different transformants of Pichia pastoris KM71 harbouring the CYP505 genes for SEQ ID Nos 1 to 7 and 9 to 12 were grown and harvested as described above. The harvested cells were resuspended to give 1 g wet cell weight in 40 ml MOPS buffer (200 mM, 100 mM glucose, 100 mM glycerol, pH 8) and 1 ml aliquots of these cell suspensions were transferred to 40 ml amber vials. Dodecane, 1-dodecanol and 1-tetradecanol were added neat to these cell suspensions to give final concentrations of 200 mM in the case of the alcohols and 1 M in the case of dodecane while in the case of dodecanoic acid 20 μl of a 500 mM stock solution (in DMSO) was added to give a final concentration of 10 mM. Transformants harbouring the CYP505 genes for SEQ ID Nos 1 to 4 were tested for the biotransformation of 1-dodecanol, 1-tetradecanol, dodecanoic acid, tetradecanoic acid and dodecane, while those harbouring the CYP505 genes for SEQ ID Nos 5 to 7 and 9 to 12 were only tested for the biotransformation of 1-dodecanol and dodecanoic acid. The biotransformations were incubated at 25° C. and 225 rpm for 24 h. Extractions were performed using ethyl acetate (500 μl×2). The extracts were analyzed using GC/MS.

B1: CYP505E3: self-sufficient cytochrome P450 monooxygenase from Aspergillus terreus, SEQ ID No 1 (protein, listed as Aspergillus terreus)
chain: MIKETEQIPGPRPLPVVGNLFDMDLEHGLECLIRLADDFGPLFQITINGEKQIFATSQALVDELCDESRFHKAVMGGLEKLRMLASDGLFTAYHGERGWGIAHRILVPAFGPLRIRNMFEEMNDVAQQLCLKWARQGSSTSINITDDFTRLTLDTIALCTMNFRLNSFYNNETMHPFVKSMLYVLRESDIQSMLPGIANCIRVKARSRMSKHIQLMRNMARGIIQERRDQAEPVDDLLNTLLNGRDPVTGEGMSDDLIINNVITFLIAGHETTSGLLSFTFYYLLQNPHILERAQNEVDEVTGGERITVQHLGRLTYIDAILKESLRLMPTAPAFTVTPKKPEVLGGAWAIDAGQAVNVLLPVCLRDRSVFGPDADEFRPERMLEENFSKLPPNSWKPFGNGERSCIGRAFAWQEAQLVVAMVLQTFDLVPDDPSYKLRIKETLTIKPDGFRVRATLRRGQSATGLSQGSMSASGATSSVASPGPPAATGAQSNPAGGQRISFFYGSNSGTCKALAHRLASSLMGRGFTEQKLAALDTVVGNLPTDQPVIIVTTSYDGRPTDDAEEFVRWLESKRPVLQGVSYAVFGCGHHDWAKTFYRIPILIDDLMHKAGATRLTALGTANAAVSDLFSDLELWEETNLLPALREAFPPSNSSDVESSEPHQLQICVSKPRRVDMHRGLVEAKVTAVRTLTSPDSPEKRHVEFHVQGDTTWRPGDHVNILPVNPLSTVSRVLAYFQLAPDHSITVNSFNTQGLPSATPVSATELFSSFVELSQPATRKNLKALAMAAESKTDEQELIRLHDSYDALVRDKRVSVLDILERFPSISLPIGIFISMLPPLRLRTYSLSMAPSFKPSHGSLTFSVINEPAWSGNGQYLGVGSNYLASLTPGSLLYLSPRPAKDAFHLPADQFNTPIIMICAGSGLAPFMGFIQERMTWLKQGRPLAKGLLFFGCRGPHLDDLYYEELSEFEDAGVVEVHRAYSRAPDDVRAKGCRHVQHRLVTEAEAVRDHWGRNAIVYVCGSSNMARGVQTVLEEILGTLPPERYVAEIF
With B1 the “products identified from tetradecanoic acid (GC-MS, methylated samples)” value [1] was 7-hydroxy tetradecanoic acid, the “δ-dodecalactone R:S ratio” value [2] was 55:45 and the δ-dodecalactone ee [2] was 10%. The “products identified from hexadecanoic acid (GC-MS, methylated samples)” value ([3]; 5 mmol/L substrate, Tris-HCl, 24 h) was 9-hydroxy hexadecanoic acid, the “ω-7 hydroxylase activity C16FA” value ([3]; C16 fatty acid, GC-MS peak height) was “++ (++ 0.1 million < RA < 1 million)” and the conversion of substrate ([4]; 5 mM dodecanoic acid, within 24 h, all buffers) was “almost completely converted”. The “δ-dodecalactone and 5-OH 12FAME as share of the total products” value ([4]; dodecanoic acid, CFE, Tris-HCl, phosphate or MOPS buffer pH 8) was 30-35%, the “products produced from dodecane (GC-MS)” value ([5]; 1 M dodecane, 24 h) was 5-dodecanol and the “ω-7 hydroxylase activity C12alk” value ([5]; C12 alkane, GC-MS peak height) was “+++ (+++ 1 million < RA < 10 million)”.

— US10975360B2, “Process for the modification of alkanes, fatty acids and fatty alcohols” (priority 2016, dated 2021)
